Results: publication PMC8049983

Molecular target: V3A3E3 PA conjugated to carboxytetramethylrhodamine
Test: FRET or BRET

Work on “V3A3E3 PA conjugated to fluorescein isothiocyanate (peptide)” yielded an FRET ratio of 0.6 to 0.7.
